“Also recorded” adds a separate entry of the source. code Z = not defined here
T1: MALT1 (Homo sapiens, UniProt Q9UDY8)
T1 construct: made in house
T1 sequence (Q9UDY8 334-824): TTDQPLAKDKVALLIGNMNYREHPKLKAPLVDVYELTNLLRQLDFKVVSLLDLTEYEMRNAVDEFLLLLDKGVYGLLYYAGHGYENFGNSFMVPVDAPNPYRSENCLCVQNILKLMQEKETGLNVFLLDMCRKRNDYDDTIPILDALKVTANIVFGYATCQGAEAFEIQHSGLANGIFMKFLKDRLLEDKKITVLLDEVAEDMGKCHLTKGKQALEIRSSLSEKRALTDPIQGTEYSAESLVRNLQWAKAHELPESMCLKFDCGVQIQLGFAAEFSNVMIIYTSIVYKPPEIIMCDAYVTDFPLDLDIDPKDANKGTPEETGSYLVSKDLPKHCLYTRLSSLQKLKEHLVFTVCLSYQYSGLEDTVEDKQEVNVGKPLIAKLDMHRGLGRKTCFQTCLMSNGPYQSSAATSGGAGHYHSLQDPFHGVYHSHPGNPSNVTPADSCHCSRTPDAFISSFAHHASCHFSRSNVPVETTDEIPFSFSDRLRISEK

T2: MALT1 (Homo sapiens, UniProt Q9UDY8)
T2 construct: made in house
T2 sequence (Q9UDY8 2-824): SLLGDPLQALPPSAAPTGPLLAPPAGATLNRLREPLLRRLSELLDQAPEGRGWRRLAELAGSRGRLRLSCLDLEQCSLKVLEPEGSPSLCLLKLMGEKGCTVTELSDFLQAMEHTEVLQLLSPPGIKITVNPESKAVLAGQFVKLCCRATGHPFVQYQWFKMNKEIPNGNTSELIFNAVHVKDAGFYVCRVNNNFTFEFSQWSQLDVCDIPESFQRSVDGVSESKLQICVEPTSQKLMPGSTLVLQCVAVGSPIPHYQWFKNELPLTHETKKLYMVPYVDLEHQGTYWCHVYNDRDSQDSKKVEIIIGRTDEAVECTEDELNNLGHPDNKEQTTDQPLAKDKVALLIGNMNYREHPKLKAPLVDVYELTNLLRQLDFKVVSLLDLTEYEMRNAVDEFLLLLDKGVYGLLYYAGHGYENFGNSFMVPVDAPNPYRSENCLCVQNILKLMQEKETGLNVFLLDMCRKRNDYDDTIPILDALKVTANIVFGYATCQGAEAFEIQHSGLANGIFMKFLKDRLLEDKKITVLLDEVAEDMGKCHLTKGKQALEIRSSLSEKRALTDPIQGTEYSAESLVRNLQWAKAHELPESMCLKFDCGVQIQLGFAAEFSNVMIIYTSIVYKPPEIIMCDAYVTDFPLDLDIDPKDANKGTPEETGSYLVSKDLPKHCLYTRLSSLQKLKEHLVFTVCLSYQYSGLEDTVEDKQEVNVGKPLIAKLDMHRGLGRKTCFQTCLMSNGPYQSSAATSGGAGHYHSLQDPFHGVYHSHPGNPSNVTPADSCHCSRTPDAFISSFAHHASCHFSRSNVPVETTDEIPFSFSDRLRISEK

B1: A. thaliana serpin (AT1g47710): Arabidopsis thaliana serpin (AT1g47710), indicated as serpin-wt (protein)
chain: MDVRESISLQNQVSMNLAKHVITTVSQNSNVIFSPASINVVLSIIAAGSAGATKDQILSFLKFSSTDQLNSFSSEIVSAVLADGSANGGPKLSVANGAWIDKSLSFKPSFKQLLEDSYKAASNQADFQSKAVEVIAEVNSWAEKETNGLITEVLPEGSADSMTKLIFANALYFKGTWNEKFDESLTQEGEFHLLDGNKVTAPFMTSKKKQYVSAYDGFKVLGLPYLQGQDKRQFSMYFYLPDANNGLSDLLDKIVSTPGFLDNHIPRRQVKVREFKIPKFKFSFGFDASNVLKGLGLTSPFSGEEGLTEMVESPEMGKNLCVSNIFHKACIEVNEEGTEAAAASAGVIKLRGLLMEEDEIDFVADHPFLLVVTENITGVVLFIGQVVDPLH
B2: IKLA-mutant: mutant serpin in which the reactive center loop has been replaced by the sequence IKLA (SEQ ID NO:16) (protein)
chain: MDVRESISLQNQVSMNLAKHVITTVSQNSNVIFSPASINVVLSIIAAGSAGATKDQILSFLKFSSTDQLNSFSSEIVSAVLADGSANGGPKLSVANGAWIDKSLSFKPSFKQLLEDSYKAASNQADFQSKAVEVIAEVNSWAEKETNGLITEVLPEGSADSMTKLIFANALYFKGTWNEKFDESLTQEGEFHLLDGNKVTAPFMTSKKKQYVSAYDGFKVLGLPYLQGQDKRQFSMYFYLPDANNGLSDLLDKIVSTPGFLDNHIPRRQVKVREFKIPKFKFSFGFDASNVLKGLGLTSPFSGEEGLTEMVESPEMGKNLCVSNIFHKACIEVNEEGTEAAAASAGVIKLAGLLMEEDEIDFVADHPFLLVVTENITGVVLFIGQVVDPLH

How the values were obtained:
Experiment in all cases: MALT1 paracaspase assay (Ac-LSSR-AMC cleavage, AMC release)
MALT1 [1] = assay type: biochemical, human; conditions: for Inhibition of the MALT1 paracaspase activity by A. thaliana serpin: FIG. 11, several serpin concentrations
MALT1 [2] = molecular target: T1, MALT1; assay type: biochemical; conditions: recombinant MALT1 p20 fragment; substrate 100 μM; inhibitor 100 μM
MALT1 [3] = molecular target: T2, MALT1; assay type: biochemical; conditions: bio-IP purified MALT1 from HEK-293T cells; substrate 100 μM; inhibitor 100 μM (equimolar)

Row | Molecule | Inhibition of the malt paracaspase activity in small compound screening (MALT1 [1]; FIG. 12, different concentrations) | Inhibition of Ac-LSSR-AMC cleavage by recombinant MALT1 (MALT1 [2]) | Inhibition of Ac-LSSR-AMC cleavage by bio-IP purified MALT1 (MALT1 [3]) | Inhibition of the MALT1 paracaspase activity by A. thaliana serpin (MALT1 [1])
1 | Cc1ccc(-c2ccc(C=C3C(=O)NC(=S)NC3=O)o2)cc1Cl [Inh03, 5-{[5-(3-chloro-4-methylphenyl)-2-furyl]methylene}-2-thioxodihydro-4,6(1H,5H)-pyrimidinedione] | Inhibitory effect |  |  | 
2 | Z-GASR-CHO: peptide derivate (tetrapeptide GASR, SEQ ID NO:2), inhibitor of MALT1 proteolytic activity ({code Z}-GASR-aldehyde; reading uncertain; also: printed as Z-GASR-CHO) |  | completely blocked | efficiently blocked | 
3 | Z-LSSR-CHO: peptide derivate (tetrapeptide LSSR, SEQ ID NO:1), inhibitor of MALT1 proteolytic activity, purchased from Anaspec ({code Z}-LSSR-aldehyde; reading uncertain; also: printed as Z-LSSR-CHO) |  | completely blocked | inhibits MALT1 proteolytic activity; also recorded: efficiently blocked | 
4 | B1 |  |  |  | possible, but only at relatively high concentrations
5 | B2 |  |  |  | performing better than wild type serpin at higher concentrations
